This note sets out measurements from patent US20170343530A1.

This assay addresses mutant connector conjugated with a Strep-tag to its C-terminal. As to the kind of experiment: cell-based or functional assay.

“streptavidin (coated on nanogold) (from UniProt P22629 37-163)”: the three discrete steps of channel change (conductance assay) was found to be 32%.
